This note sets out measurements from US20100129369A1 (Eli Lilly, published 2010).

The target in experiment [1] is T1, RON-ECD-Fc (human, UniProt Q04912 25-957).
T1 construct: extracellular domain; Bought reagent; not shown: Fc part of the bought fusion
T1 sequence (looked up): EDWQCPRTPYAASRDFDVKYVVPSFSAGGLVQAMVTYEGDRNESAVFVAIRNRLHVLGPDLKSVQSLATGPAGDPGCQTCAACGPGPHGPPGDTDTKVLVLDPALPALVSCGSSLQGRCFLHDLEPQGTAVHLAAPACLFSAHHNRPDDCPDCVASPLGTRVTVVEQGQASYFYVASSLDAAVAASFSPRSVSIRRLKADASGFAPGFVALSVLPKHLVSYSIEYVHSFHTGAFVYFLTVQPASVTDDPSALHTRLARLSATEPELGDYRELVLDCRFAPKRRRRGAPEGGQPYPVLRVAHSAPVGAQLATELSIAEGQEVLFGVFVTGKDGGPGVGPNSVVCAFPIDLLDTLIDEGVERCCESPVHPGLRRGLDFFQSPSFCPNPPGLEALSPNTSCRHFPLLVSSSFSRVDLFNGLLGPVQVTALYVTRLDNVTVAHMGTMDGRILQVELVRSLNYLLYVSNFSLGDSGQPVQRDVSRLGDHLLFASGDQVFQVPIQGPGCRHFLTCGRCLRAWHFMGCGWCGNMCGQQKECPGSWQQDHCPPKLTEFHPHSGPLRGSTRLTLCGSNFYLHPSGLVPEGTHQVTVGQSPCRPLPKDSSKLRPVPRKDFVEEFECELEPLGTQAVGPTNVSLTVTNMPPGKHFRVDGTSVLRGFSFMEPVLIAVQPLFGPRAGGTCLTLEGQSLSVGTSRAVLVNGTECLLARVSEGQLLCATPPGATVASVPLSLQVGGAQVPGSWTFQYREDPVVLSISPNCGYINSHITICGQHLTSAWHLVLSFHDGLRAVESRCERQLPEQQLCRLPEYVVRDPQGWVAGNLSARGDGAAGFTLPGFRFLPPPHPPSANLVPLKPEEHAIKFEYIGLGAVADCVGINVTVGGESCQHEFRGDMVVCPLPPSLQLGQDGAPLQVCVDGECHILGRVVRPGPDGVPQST
The experiment in a line: ELISA, coated ECD-Fc, antibody 12.860 ng/mL. The method, then: (§1) Wells of 96-well EIA/RIA high binding plates (Costar, #2592) are coated with 100 μL of 1 μg/mL human c-Met extracellular domain (ECD)-Fc-Flis fusion (SEQ ID NO:72), RON-ECD-Fc (R&D Systems, #1947-MS), or PlexinA2-ECD-Fc (Abnova, Taipei, Taiwan #H00005362-P01) in coating buffer (BioFX Labs, # COAT-1000-01) overnight at 4° C. […] After the plates are washed, 100 μL/well of substrate solution (BioFx, #TMBW-1000-01) are added and the plates are incubated for 10 min. at room temperature. 100 μL/well of stop solution (BioFx, # LSTP-1000-01) are added to stop the reaction. The colorimetric signals are developed and read at 450 nm using a SpectraMax 190 plate reader (Molecular Devices, Sunnyvale, Calif.). c-Met antibody binding to c-Met, RON and PlexinA2 ECDs is proportional to color signal production.

Experiment [2] addresses T2, Human c-Met-Flis-Fc ECD (human).
T2 construct: also called human c-Met extracellular domain (ECD)-Fc-Flis fusion; Human cMet-ECD-Fc-Flis
Nature of the experiment: ELISA, coated ECD-Fc, antibody 12.860 ng/mL. As for the experimental part: as §1

In experiment [3] the target is T3, PlexinA2-ECD-Fc (human, UniProt O75051 35-1237).
T3 construct: extracellular domain; Bought reagent
T3 sequence (looked up): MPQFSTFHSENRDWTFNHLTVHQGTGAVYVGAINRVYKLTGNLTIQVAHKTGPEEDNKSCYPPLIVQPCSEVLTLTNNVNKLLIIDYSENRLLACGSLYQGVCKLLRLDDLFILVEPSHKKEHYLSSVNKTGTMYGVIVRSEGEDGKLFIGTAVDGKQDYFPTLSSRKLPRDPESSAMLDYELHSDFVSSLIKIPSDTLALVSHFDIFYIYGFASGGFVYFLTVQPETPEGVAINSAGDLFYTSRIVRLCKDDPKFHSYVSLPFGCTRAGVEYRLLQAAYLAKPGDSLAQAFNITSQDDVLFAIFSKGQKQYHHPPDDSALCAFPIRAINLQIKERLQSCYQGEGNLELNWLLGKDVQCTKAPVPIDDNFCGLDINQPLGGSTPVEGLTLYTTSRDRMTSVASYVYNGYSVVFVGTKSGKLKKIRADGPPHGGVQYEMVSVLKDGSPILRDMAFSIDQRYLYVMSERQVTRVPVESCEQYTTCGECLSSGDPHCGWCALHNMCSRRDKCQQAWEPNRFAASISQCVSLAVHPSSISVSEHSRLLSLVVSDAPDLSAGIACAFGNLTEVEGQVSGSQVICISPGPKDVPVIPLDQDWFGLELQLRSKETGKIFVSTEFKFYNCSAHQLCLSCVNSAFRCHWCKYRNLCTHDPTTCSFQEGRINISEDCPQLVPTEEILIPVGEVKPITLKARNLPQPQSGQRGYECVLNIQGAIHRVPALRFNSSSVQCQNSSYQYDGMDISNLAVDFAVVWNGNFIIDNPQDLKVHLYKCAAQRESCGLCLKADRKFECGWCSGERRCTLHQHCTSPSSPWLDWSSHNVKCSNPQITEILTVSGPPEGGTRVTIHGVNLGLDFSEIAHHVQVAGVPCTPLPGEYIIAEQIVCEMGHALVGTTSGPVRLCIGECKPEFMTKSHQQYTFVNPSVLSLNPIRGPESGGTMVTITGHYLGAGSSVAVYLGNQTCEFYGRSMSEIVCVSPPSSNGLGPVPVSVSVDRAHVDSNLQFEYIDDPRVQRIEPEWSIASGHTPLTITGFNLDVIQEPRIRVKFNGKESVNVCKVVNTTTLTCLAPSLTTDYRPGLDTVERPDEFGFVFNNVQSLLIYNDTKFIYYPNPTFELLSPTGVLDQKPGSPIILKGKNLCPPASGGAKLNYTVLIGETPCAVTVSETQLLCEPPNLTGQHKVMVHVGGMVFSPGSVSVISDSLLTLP
The experiment in a line: ELISA, coated ECD-Fc, antibody 12.860 ng/mL. As for the experimental part:
as §1

The target of experiment [4] is T1, RON-ECD-Fc. Nature of the experiment: ELISA, coated ECD-Fc, antibody 16666.667 ng/mL. The method, then:
as §1

Experiment [5] concerns the target T2, Human c-Met-Flis-Fc ECD. The experiment in a line: ELISA, coated ECD-Fc, antibody 16666.667 ng/mL. As for the experimental part:
as §1

In experiment [6] the target is T3, PlexinA2-ECD-Fc. The experiment in a line: ELISA, coated ECD-Fc, antibody 16666.667 ng/mL. As for the experimental part:
as §1

The target in experiment [7] is T2, Human c-Met-Flis-Fc ECD. The experiment in a line: ELISA, coated ECD-Fc, antibody 77.160 ng/mL.

T2 sequence (chain, as listed by the source limits assumed): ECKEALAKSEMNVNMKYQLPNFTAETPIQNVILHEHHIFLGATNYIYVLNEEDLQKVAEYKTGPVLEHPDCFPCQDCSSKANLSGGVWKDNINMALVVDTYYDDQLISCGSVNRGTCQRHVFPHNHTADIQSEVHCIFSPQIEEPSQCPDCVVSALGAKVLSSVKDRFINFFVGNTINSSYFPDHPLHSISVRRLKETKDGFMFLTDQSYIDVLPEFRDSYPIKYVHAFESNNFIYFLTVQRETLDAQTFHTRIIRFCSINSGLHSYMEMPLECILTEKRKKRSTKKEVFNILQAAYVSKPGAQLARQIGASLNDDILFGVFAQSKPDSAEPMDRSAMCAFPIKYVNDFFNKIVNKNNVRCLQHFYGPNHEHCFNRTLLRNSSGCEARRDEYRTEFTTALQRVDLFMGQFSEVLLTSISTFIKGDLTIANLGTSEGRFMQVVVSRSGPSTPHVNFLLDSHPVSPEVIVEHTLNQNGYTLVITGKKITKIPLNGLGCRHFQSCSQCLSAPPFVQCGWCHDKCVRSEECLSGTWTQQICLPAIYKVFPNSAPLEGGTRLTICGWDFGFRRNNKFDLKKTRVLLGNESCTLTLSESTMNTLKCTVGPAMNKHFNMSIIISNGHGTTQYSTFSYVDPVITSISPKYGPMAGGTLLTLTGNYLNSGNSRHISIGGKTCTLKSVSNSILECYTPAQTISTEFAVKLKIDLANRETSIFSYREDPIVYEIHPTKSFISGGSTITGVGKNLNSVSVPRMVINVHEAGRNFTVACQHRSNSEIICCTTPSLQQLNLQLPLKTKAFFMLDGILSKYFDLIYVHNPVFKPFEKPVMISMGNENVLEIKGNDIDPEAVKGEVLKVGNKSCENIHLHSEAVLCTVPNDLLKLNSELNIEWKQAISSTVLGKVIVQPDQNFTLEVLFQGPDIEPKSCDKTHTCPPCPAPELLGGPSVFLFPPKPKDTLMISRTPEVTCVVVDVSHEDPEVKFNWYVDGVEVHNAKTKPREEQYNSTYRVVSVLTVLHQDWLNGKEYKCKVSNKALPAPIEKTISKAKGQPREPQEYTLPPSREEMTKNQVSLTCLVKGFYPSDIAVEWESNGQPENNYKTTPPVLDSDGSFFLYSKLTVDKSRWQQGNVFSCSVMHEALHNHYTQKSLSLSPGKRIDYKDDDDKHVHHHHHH

B1: C8-6 (antibody, human IgG2, kappa, V domains shown)
VH: QVQLVQSGAEVKKPGASVKVSCKASGYTFTDYYMHWVRQAPGQGLEWMGRVNPNRGGTTYNQKFEGRVTMTTDTSTSTAYMELRSLRSDDTAVYYCARTNWLDYWGQGTTVTVSS
VL: DIQMTQSPSSLSASVGDRVTITCSVSSSVSSIYLHWYQQKPGKAPKLLIYSTSNLASGVPSRFSGSGSGTDFTLTISSLQPEDFATYYCIQYSGYPLTFGGGTKVEIKR
notes: Called IgG4, kappa; also called Mab C8-6
As to B1, the “Average A450 nm” value amounted to 0.087 A450 nm with RON-ECD-Fc [1]; 4 A450 nm with Human c-Met-Flis-Fc ECD [2]; 0.085 A450 nm with PlexinA2-ECD-Fc [3]; 0.124 A450 nm in the experiment with RON-ECD-Fc [4]; 4 A450 nm with Human c-Met-Flis-Fc ECD [5]; 0.118 A450 nm with PlexinA2-ECD-Fc [6]. For the same molecule, the “Average A450 nm” value with Human c-Met-Flis-Fc ECD [7] worked out at 4 A450 nm.
